From the DeepSol protein solubility set

Assay: soluble on expression in E. coli; label from the status in PepcDB or PDB records

## MEGFSLNQDRGSMQDALKQYKHGLGTFEQKMPLMGRKFNEFTEQCFAGNSLTEREKQLIALGIAINAQDEYCMIYHTKGCLDQGASEENILEAVSVAAAFGGGAAFSQGVTVVQQCIEEFGNTTH
  soluble on expression in E. coli: soluble

## MSWVQLAGHTGSFKAAGTSGLILKRCSEPERYCLARLMADALRGCVPAFHGVVERDGESYLQLQDLLDGFDGPCVLDCKMGVRTYLEEELTKARERPKLRKDMYKKMLAVDPEAPTEEEHAQRAVTKPRYMQWREGISSSTTLGFRIEGIKKADGSCSTDFKTTRSREQVLRVFEEFVQGDEEVLRRYLNRLQQIRDTLEVSEFFRRHEVIGSSLLFVHDHCHRAGVWLIDFGKTTPLPDGQILDHRRPWEEGNREDGYLLGLDNLIGILASLAER
  soluble on expression in E. coli: soluble

## MSLVVEHNPFAKRYRKGMKRIALVYPNRYVGGITNLGLQYIYARINESDAICERFYADVFDGLRSIESATPLSEFDVALFSLQYETDYFKAVEILKRSGFKGLKIAGGPCVMENPQPLMDYFHAFFIGEVEGYVEELIHAKNAEELSGIPGVFTGREEKVKRVYAKLDRHIEKEIIGEGAYGRCFLLEIGRGCVRRCRFCIVRQIYFPPRWRKKEMLPEIGEEKVAIIAPSPSDHPQFKEILQHYVEQGKEVSPSSVRADTLDEELADLLKKAGVKTLTIAPETASDKLQEVINKGIGDEEVMRAAELASTRFEKVKLYYMVGLPGESFEDVKAILEQALRVKKLVGKVEISVNPLVPKPHTPLQWMGFGGEEELREGISHLKKKLEYLRREARRAGIGADVSGFKEFAIQTILSRGDREVAEMLEGASYRKFEKYLKPINPDSPLPWDFIDHGYRKSTLLKEYDKIKKILEGHHHHHH
  soluble on expression in E. coli: not soluble

## MAGDPMLKGRQTWEFENRPVILSSAATAGPFEANGPLADDFDILFEDMWLGEDSFEKAQKVLIEEAAKTAIEKAGIQNDDIQFVFAGDLLNQMTSTSFACRSLCIPYFGLFGACSTSMEGLALAAFVINHSGANYVLTGSTSHNAAIEKQFRYPTEYGAQKPPTAQWTATAAGVGVVAKVGSGPVVTSATIGKVVDMGLSDPFNMGEAMAPAAADTIEMHFQERGVGPDYYDLIATGDLGKIGLPIVKEMLEQKGYSFNDGQLNDCGLMIYRDGQPVLAGGSGSGCSASVTYGHLLNRMKKGEINRMLIVATGALLSPMSYQQNETIPCIAHAVSIEAGGALALEHHHHHH
  soluble on expression in E. coli: not soluble

## MGSDKIHHHHHHMALYPLPALVEQLMTQPIIFIGGKGGVGKTTTAAALASYYASQGKKTLIVSTDPAHSLGDVLKVPLKNQKTVVTPYLDAIELNPDLIVDEHFAQVERTITSYANPDMMPKIREHLRLSKSAPGAQEAAMLESMCQHLVAAADAGYEHIIFDTAPTGHTLRLLVLPEMMGAWTDGLLAQQRRQAKLRSVANHLGSHEQANNNKNDLANPFVERKSDRWEQAVSVLEKRKQLFRQAGLLLHDRRKTAIVLVMTADVLPLAETKRAIEQLEESNLIPAAIVINQLITQTQSDAFWHHRAERQQQLMQDIEKNFTNYPLYPIYLQQTDVRGTDALSALVSPVS
  soluble on expression in E. coli: not soluble

## SDAILNYRPEGSEDYYALLGCDELSSVEQILAEFKIRALECHPDKHPENSKAVETFQKLQKAKEILCNAESRARYDHWRRSQMSMPFEQWEALADSVKTSMHWAVRSKKDLMLEGSGQTFTSSVPNKERSEQRETKKGDPDSNPEKMKQKEPKFPEEGISPQNPDSPGLSDLNCGHLRFRWSGDAPSELLRKFRNYEI
  soluble on expression in E. coli: soluble

## MNELKNAQTASAHRILLPLLRCIASGAADVTEEGNEIVLRRKRPGQAVQRFPTETVRLAVSSGLLEWRQNSLSAAPPLASYLKRATAKDRDEVFQEQHRDIQTVVVEIDETKQPARRNLNTAPLTSLSRLKERDGSAFFPEDALAAGERLAADFHRGHLNPRVTATWEPRIASRGKGEAGGALDLTEAAMAARARFSRAADAMGPELSGVAIDICCFEKGLETVERERLWPARSAKLLLRAALLSLARHYAPPVPPARGKDRPKERHWGDADYRPSLR
  soluble on expression in E. coli: not soluble

## MGSDKIHHHHHHMRIDTVNVLLEALPYIKEFYGKTFVIKFGGSAMKQENAKKAFIQDIILLKYTGIKPIIVHGGGPAISQMMKDLGIEPVFKNGHRVTDEKTMEIVEMVLVGKINKEIVMNLNLHGGRAVGICGKDSKLIVAEKETKHGDIGYVGKVKKVNPEILHALIENDYIPVIAPVGIGEDGHSYNINADTAAAEIAKSLMAEKLILLTDVDGVLKDGKLISTLTPDEAEELIRDGTVTGGMIPKVECAVSAVRGGVGAVHIINGGLEHAILLEIFSRKGIGTMIKELEG
  soluble on expression in E. coli: not soluble

## MGSDKIHHHHHHMKIGIVISGGDVSGMNNFIFQIARQANADITLFNGGIPGLLEKSHQDMAWRDLVDYSITAVPIITSGRTSRKLQRSEYESIAKKLKSLRIDVLIMAGGDGSLQFLNTLSEFEINCFGVGMTIDNDVYGSDYTIGFSTACEQIIKEVSRLRNTGRALPGRVFMVEILGGYCGELTLQSAIKCNADIALIPEAQMPLAVLAERITRKLSAQNSVVILCSEGYTKEYSPGFQGAIDTMIKQLEPQIGVRIRKTIVGYGLRSGDPTCEEIYQGTIMASEVVRCIQSGMKNKAIIINSSNKPIPIDLVSMKKRLVDTEGHHYKLAKQLNII
  soluble on expression in E. coli: not soluble

## MGSDKIHHHHHHMNDPESIFQRLDRLLARIEDTLPVRPQHADPAEYIALRWRKHGDTGYLQAINHPHTITLNELLNIEEQKQTLDRNTLQFVSGLPANNVLLTGARGTGKSSLIKALLNRYADRGLRMIEVDKLGLTDLPDIIEFIGQRPERFILYCDDLSFEADEPGYKALKVVLDGSISTASDNVLIYATSNRRHLIPEFMHENLATRHVDGEIHPGEATEEKISLSERFGLWLSFYPFDQEQYLEIVRHWLSQHGISRLSGPARQEALRWALARGSRNGRVARQFARDWAGQQKLAKTEPVRVDKE
  soluble on expression in E. coli: not soluble

## MKNYHDIVLALAGVCQSAKLVHQLATESRADSETFLTALNSLFITQPQRIEDVFGGEVRHLKLGLETLIHQLNAQGDQNLTRYWLSLLALEGKLSKNSDAKQTLGNRISRLKEQEIHYARDSETMLSIMANIYSDIISPLGKKIHILGSPDYLRQELVQNKIRAVLLAGIRSAVLWKQMGGTKWQILFFRRKLLATAKQIYSSIY
  soluble on expression in E. coli: not soluble

## MSQLRADKKGTHRVAFDRNKKKLLKAATVCGICGKPVDKSLKYPHPLSAAIDHIVPIAKGGHPSALENLQLTHWQCNRQKSDKLFANQASNEPKTIGNRNLPQSRDWSSFAFKKLEHHHHHH
  soluble on expression in E. coli: soluble

## MSLAKFAPVQYKYIIKAEFEIDGIVDREDIIGAIFGQTEGLLGMELDLRELQKQGKLGRIEVEYKRVGNKTIGTITIPTSLKAVETSLIAAAIETVDRVGPAKARFRVKEIVDVRSSKREYIRNRAKELFVQMMSKTAPDIEELRRELEEAYYSKQLIEYGEEKLPAGPLVEKSDEIILVEGRADVVNLVKHGILNVLGMNGINIPKSVVELSKRKKVTLFIDGDRGGELVLRNMLAAGADIDYVAVAPPGREVEELTNKEILKALKSKIPLEQYIKNLRISINNDENKEKYKELLSKVFDTKKAIVFDEQFNIIDEKPLEEIDKLPSAYGIAIDKILDNETYAKIKGKYQLILALDSNVNAQERVITLKDIQEGHHHHHH
  soluble on expression in E. coli: not soluble

## MSTHEATLQQPLLRAIDLKKHYPVKKGIFSPERLVKALDGVSFNLERGKTLAVVGESGCGKSTLGRLLTMIETPTGGELYYQGQDLLKHDPHAQKLRRQKIQIVFQNPYGSLNPRKKVGQILEEPLLINTSLSKAQRREKALAMMAKVGLKTEHYDRYPHMFSGGQRQRIAIARGLMLDPDVVIADEPVSALDVSVRAQVLNLMMDLQQDMGLSYVFISHDLSVVEHIADEVMVMYLGRCVEKGTKEQIFNNPRHPYTQALLSATPRLNPDDRRERIKLTGELPSPLNPPPGCAFNARCSRRFGPCTQLQPQLKEYDGQLVACFAVDQDENPQKPLS
  soluble on expression in E. coli: not soluble

## MQQNKCPDCEVELEWTGQYHCGQCESDFKKVGFCPDCGAELEKLQACGAANYFCNTCNELKSKSRVRFEFQKISLEHHHHHH
  soluble on expression in E. coli: soluble

## GIPMETKGGTVKAASGFNATEDAQVLRKAMKGLGTDEDAIIGVLACRNTAQRQEIRTAYKSTIGRDLLEDLKSELSSNFEQVILGMMTPTVLYDVQELRRAMKGAGTDEGCLIEILASRNPEEIRRINQTYQQQYGRSLEEDICSDTSFMFQRVLVSLTAGGRDEGNYLDDALVKQDAQDLYEAGEKRWGTDEVKFLSILCSRNRNHLLHVFDEYKRISQKDIEQSIKSETSGSFEDALLAIVKCMRNKPAYFAERLYKSMKGLGTDDSTLIRVMVSRAEIDMLDIRANFKRLYGKSLYSFIKGDTSGDYRKVLLILCGGDD
  soluble on expression in E. coli: soluble

## MSLSKYKPTWMIDAIYKITPAQLKKLGIKAVLTDLDNTLIAWNNPDGTEELKTWLLEMKNAGITVLVVSNNKDSRIKRVVEKFDLDYVARALKPTARGFKLAEKKLGLKPSEMLMVGDQIMTDIRGANAAGIRNVLVQPIVDTDGWNTRINRFFERKIMKYLSKKHPEMTWRGGLEEGHHHHHH
  soluble on expression in E. coli: soluble

## QADAGPDKELTLPVDSTTLDGSKSSDDQKIISYLWEKTQGPDGVQLENANSSVATVTGLQVGTYVFTLTVKDERNLQSQSSVNVIVKEE
  soluble on expression in E. coli: soluble

## MQGLQLPQIYFSAAERRPKFVMKTGLSATEKNEVIKAAYRQIFERDITRAYSLSISDLESKVKNGDISMKEFVRRLAKSPLYQKQFYQPFINSRVIELAFRHILGRGPSSREEVQKYFSIISNGGLPALVDALVDSAEYSDYFGEETVPYLRGLGQEALEHHHHHH
  soluble on expression in E. coli: not soluble

## MGSDKIHHHHHHMNNKPVVGISGCLTGATVRFDGGHKRMDFVMNSLAPWVAYKPICPEVAIGLPVPRPALRLIQTTCGDIRMRYSHAPHDDVTERMNAFADRFLPTIGELAGFIVCAKSPSCGMERVRLYDEKGNRGRKAGTGLFTAAMMDKYPWLPIEEDGRLHDPVLRENFIARIFALHELNALRAQGLSRHSLLAFHSRYKLQLLAHHQAGYREIGPFVARLHEWDDLDAFFVRYREKLMAILRHPASRKNHTNVLMHIQGYFHRALNSRQRAELREVILGYRAGRLPILAPLTLLKHYLAEHPDDYLRSQNYFEPYPDTLGLRLAIT
  soluble on expression in E. coli: not soluble

## MSLENKMPKDFFWGNSTSSMQTEGGWNEGGKGPSVYDVNTAGRSAKDWQVTNDNYHHYSQDLDLMKEMNMNMYRFQISWSRIVPDGDGEFNEEGIAFYNRLIDDLLARGIEPMICLYHFDMPLNLAEKYNGFLSRKVKEAFVRFGQEMMKRFADKVKYWIVFNEHNLYFADGFEHYSGVLKKELTLSDMYTVFHHTMLAHCELTQFLHENFEAKIGGMLATTEIYPATFSPKDNLYLRKFDEFYNRNLCDVYAFGHYSHEVMTYVKNQNIQMDFQKGDEEILKNGISDFISFSYYRSILLDASQLTENDAPNSYLTKGMKLNPLLEHNQWDWSIDPEGFRRILSRLYNEFGLPVFPIENGIGQSEIWDGKTKIADDLRIFYHQKHLEAMKKAIFTDGVEVMGYLGWGLIDIPASSGAIDKRYGAVYVDPKSHKRIPKKSFHWFKNVFASNGDHLDEGHHHHHH
  soluble on expression in E. coli: not soluble

## MEFAAENEGKSGGGLHSVAEGVRLSPEPGREGVRDLAGAEEFGGGEEGTGLTGIKEIGDGEEGSGQRPEEIPMDLTVVKQEIIDWPGTEGRLAGQWVEQEVEDRPEVKDENAGVLEVKQETDSSLVVKEAKVGEPEVKEEKVKEEVMDWSEVKEEKDNLEIKQEEKFVGQCIKEELMHGECVKEEKDFLKKEIVDDTKVKEEPPINHPVGCKRKLAMSRCETCGTEEAKYRCPRCMRYSCSLPCVKKHKAELTCNGVRDKTAYISIQQFTEMNLLSDYRFLEDVARTADHISRDAFLKRPISNKYMYFMKNRARRQGINLKLLPNGFTKRKENSTFFDKKKQQFCWHVKLQFPQSQAEYIEKRVPDDKTINEILKPYIDPEKSDPVIRQRLKAYIRSQTGVQILMKIEYMQQNLVRYYELDPYKSLLDNLRNKVIIEYPTLHVVLKGSNNDMKVLHQVKSESTKNVGNEN
  soluble on expression in E. coli: soluble
